Measured values as given in the supplement of paper PMC7877785.
± gives the uncertainty stated by the source.

Assay: self-splicing fitness, log relative to wild type (ln ratio); higher = more splicing; Tetrahymena group I intron in knt gene, E. coli kanamycin selection, DiMSum; sequences stand for … in CUCUCU…GGAGGGAAAAGUUAUCAGGCAUGCACCUGGUAGCUAGUCUUUAAACCAAUAGAUUGCAUCGGUUUAAAAGGCAAGACCGUCAAAUUGCGGGAAAGGGGUCAACAGCCGUUCAGUACCAAGUCUCAGGGGAAACUUUGAGAUGGCCUUGCAAAGGGUAUGGUAAUAAGCUGACGGACAUGGUCCUAACCACGCAGCCAAGUCCUAAGUCAACAGAUCUUCUGUUGAUAUGGAUGCAGUUCACAGACUAAAUGUCGGUCGGGGAAGAUGUAUUCUUCUCAUAAGAUAUAGUCGGACCUCUCCUUAAUGGGAGCUAGCGGAUGAAGUGAUGCAACACUGGAGCCGCUGGGAACUAAUUUGUAUGCGAAAGUAUAUUGAUUAGUUUUGGAGUACUCGUGGUCG
Summary of the method: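 The eight P1ex-region nucleotides of an intron in the knt kanamycin-resistance gene on pET-22b(+) were all randomised and the library put into E. coli BL21(DE3). Six replicate transformations were grown overnight at 37°C or 30°C on LB agar with or without 25 μg/mL kanamycin, together with 100 μg/mL carbenicillin, 50 μM IPTG and 0.2% rhamnose. Colonies were pooled and amplicon-sequenced on an Illumina HiSeq 2500. Fitness from DiMSum is the error-weighted combination of wild-type-normalised replicate fold changes, kanamycin over none.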

Sequence	self-splicing fitness (ln) (30 °C)	self-splicing fitness (ln) (37 °C)
UUUAAGCAAUAUUACGGCAC	-2 ± 0.27	-1.87 ± 0.23
UUUAAGCAAUAUUACGGCCA	-0.688 ± 0.11	-0.335 ± 0.15
UUUAAGCAAUAUUACGGGCC	–	-2.57 ± 0.49
UUUAAGCAAUAUUACGGUCA	-1.15 ± 0.12	-0.266 ± 0.1
UUUAAGCAAUAUUACGUAUU	-2.16 ± 0.18	-0.782 ± 0.21
UUUAAGCAAUAUUACGUCAU	-3.03 ± 0.22	-1.08 ± 0.15
UUUAAGCAAUAUUACGUGAG	-0.404 ± 0.067	-0.0655 ± 0.094
UUUAAGCAAUAUUACGUGGC	-3.77 ± 0.23	-3.57 ± 0.29
UUUAAGCAAUAUUACGUUGG	-1.45 ± 0.1	-1.67 ± 0.17
UUUCAGCAAUAUUACGAAGU	-1.82 ± 0.22	0.335 ± 0.25
UUUCAGCAAUAUUACGACAA	-0.0726 ± 0.12	-0.913 ± 0.14
UUUCAGCAAUAUUACGACCA	-0.495 ± 0.19	-1.36 ± 0.23
UUUCAGCAAUAUUACGACGU	-1.71 ± 0.17	-0.698 ± 0.18
UUUCAGCAAUAUUACGACUA	0.605 ± 0.12	0.612 ± 0.12
UUUCAGCAAUAUUACGAGUA	-1.3 ± 0.11	-0.691 ± 0.1
UUUCAGCAAUAUUACGAUAU	-1.88 ± 0.15	-0.0425 ± 0.12
UUUCAGCAAUAUUACGCAAG	-1.27 ± 0.11	-0.106 ± 0.13
UUUCAGCAAUAUUACGCCGU	-3.39 ± 0.36	-1.45 ± 0.26
UUUCAGCAAUAUUACGCGAG	-1.16 ± 0.14	0.301 ± 0.15
UUUCAGCAAUAUUACGGAGU	-2.8 ± 0.28	-1.64 ± 0.38
UUUCAGCAAUAUUACGGCAU	-1.87 ± 0.16	-1.08 ± 0.19

Sequence	self-splicing fitness (ln) (30 °C)	self-splicing fitness (ln) (37 °C)
UUUCAGCAAUAUUACGGGAC	-2.81 ± 0.21	-1.4 ± 0.19
UUUCAGCAAUAUUACGGGGG	-2.22 ± 0.15	-1.45 ± 0.16
UUUCAGCAAUAUUACGGGUG	-0.316 ± 0.074	-0.441 ± 0.087
UUUCAGCAAUAUUACGGUCG	-0.269 ± 0.074	0.418 ± 0.11
UUUCAGCAAUAUUACGGUGC	-3.27 ± 0.21	-3.4 ± 0.39
UUUCAGCAAUAUUACGGUUA	0.116 ± 0.071	0.454 ± 0.077
UUUCAGCAAUAUUACGUAGU	-3.95 ± 0.24	-2.63 ± 0.18
UUUCAGCAAUAUUACGUAUA	-0.408 ± 0.21	-0.0411 ± 0.25
UUUCAGCAAUAUUACGUCCA	-0.967 ± 0.14	0.0389 ± 0.16
UUUCAGCAAUAUUACGUCGU	-3.77 ± 0.17	-1.93 ± 0.11
UUUCAGCAAUAUUACGUCUG	-3.65 ± 0.22	-1.87 ± 0.16
UUUCAGCAAUAUUACGUUAA	-1.45 ± 0.077	-1.09 ± 0.076
UUUGAGCAAUAUUACGAAAU	-3.72 ± 0.2	-2.09 ± 0.17
UUUGAGCAAUAUUACGAAGC	-3.58 ± 0.42	-1.64 ± 0.33
UUUGAGCAAUAUUACGAAUG	-3.15 ± 0.25	-0.965 ± 0.29
UUUGAGCAAUAUUACGACUG	-2.39 ± 0.36	-1.03 ± 0.39
UUUGAGCAAUAUUACGAGGG	-3.32 ± 0.32	-0.691 ± 0.24
UUUGAGCAAUAUUACGCAAU	-3.33 ± 0.48	-1.5 ± 0.46
UUUGAGCAAUAUUACGCGAG	-1.42 ± 0.15	-0.997 ± 0.2
UUUGAGCAAUAUUACGCGGG	-2.66 ± 0.24	-1.45 ± 0.21
UUUGAGCAAUAUUACGCUAU	-3.79 ± 0.42	-2.26 ± 0.23

Sequence	self-splicing fitness (ln) (30 °C)	self-splicing fitness (ln) (37 °C)
UUUGAGCAAUAUUACGGAGC	-2.02 ± 0.49	–
UUUGAGCAAUAUUACGGAGU	-2.49 ± 0.28	–
UUUGAGCAAUAUUACGGCUA	-0.914 ± 0.23	-1.2 ± 0.21
UUUGAGCAAUAUUACGGUUC	-3.67 ± 0.37	-3.69 ± 0.46
UUUGAGCAAUAUUACGUGGA	-2.53 ± 0.21	-2.37 ± 0.22
UUUGAGCAAUAUUACGUUAG	–	-1.73 ± 0.35
UUUGAGCAAUAUUACGUUAU	-3.92 ± 0.21	-1.9 ± 0.16
UUUUAGCAAUAUUACGACAG	-0.158 ± 0.23	0.172 ± 0.27
UUUUAGCAAUAUUACGCAAA	-1.98 ± 0.49	-1.47 ± 0.36
UUUUAGCAAUAUUACGCGUU	-2.55 ± 0.18	-2.61 ± 0.19
UUUUAGCAAUAUUACGCUCG	-0.861 ± 0.14	-0.128 ± 0.16
UUUUAGCAAUAUUACGCUCU	-0.0349 ± 0.23	-0.135 ± 0.18
UUUUAGCAAUAUUACGCUGU	-3.26 ± 0.34	-1.98 ± 0.33
UUUUAGCAAUAUUACGGCAC	–	-0.642 ± 0.28
UUUUAGCAAUAUUACGGCAG	-0.809 ± 0.11	-0.727 ± 0.15
UUUUAGCAAUAUUACGGCGA	-0.835 ± 0.17	0.114 ± 0.18
UUUUAGCAAUAUUACGGCUA	-2.21 ± 0.44	-0.365 ± 0.31
UUUUAGCAAUAUUACGGGAC	-2.5 ± 0.26	-1.83 ± 0.47
UUUUAGCAAUAUUACGGGAG	-0.728 ± 0.16	-1.79 ± 0.29
